Experimental findings from patent US20210403538A1 are described below.

B1: EBOV-434 (antibody, V domains shown)
VH: QVQLVQSGAEVKKPGASVKVSCKASGYTFTGYYMFWVRQAPGQGLEWMGWINPNSGGTNYTQKFQGRVTMTRDTSISTAYMELSRLKSDDTAVYYCARDSGELLFVGSDVWGQGTLVTVSS
VL: DIQMTQSPSSVSASVGDRVTITCRASLDISYWLAWYQQKPGKAPKLLIYAASNLQSGVPSRFSGSGSGTDFTLTISSLQPEDFATYYCQQANSFPQTFGQGTRLELK
B2: EBOV-517 (antibody, V domains shown)
VH: EVQLVESGGGLVQPGGSLRLSCGASGFTFNKYWMTWVRQAPGKGLEWVANINQDGSEKYFAESVKGRFTVSRDNAKNSLYLQMNSLRAEDTAVYYCARGASIEVEILYYYHMDVWGKGTLVTVSS
VL: EIVMTQSPATLSVSPGERATLSCRASQSITTHLAWYQQKPGQAPRLLIYDTSTRATGIPARFSGSGSGTEFTLTISNMQSEDFAVYYCQQYHTWPPLTFGGGTKVEIK
B3: EBOV-511 (antibody, V domains shown)
VH: QLQLQESGPGLVKPSETLSLSCTVSGDSISANNYFWGWIRQPPGKELEWIGSIHNSGSTYYNPSLKSRVTTSVDTSRTQFSLKLHSVTAADAAIYYCARHLAPISGVIFIPSFFDSWGQGTLVTVSS
VL: EIVMTQSPATLSVSPGERATLSCRASQSVSSNLAWYQQRPGQAPRLLIFDASTRATGVPARFSGSGSGTEFTLTISSLQSEDFALYYCQQYNDWPPRLTFGGGTKVEIK
B4: EBOV-514 (antibody, V domains shown)
VH: QVQLQESGPGLVKPSQTLSLTCTVSGASITGGDDFWSWIRQPPGKGLEWIGFIHHSGNAYYRSSLKSRVHFSVDTSKDQFSLTLTSVTAADTAVYYCARDKAQAYGLLYHYHTDVWGKGTLVTVSS
VL: EIVMTQSPATLSVSPGERATLSCRASQSVSSNLAWYQQKPGLAPRLLIYGAFTRATDIPDRFSGSGSGTEFTLTISSLQSEDFAIYYCQYYNDWPPGYTFGQGTKLEIK
B5: EBOV-524 (antibody, V domains shown)
VH: QVQLVESGGGVVQPGGSLRLSCAASGFKFSTYGMNWVRQVPGQGLEWVSFVRHDGSNKYYSDSVKGRFTIFRDNSNNKLYLQMNNLRAEDTAVYYCAKDVLDCSRADCFIYYYYMDVWGKGTLVTVSS
VL: DIQMTQSPSSVSASPGDRVTITCRASQTISGWLAWYQQKPGKAPKLLIYDVSTLQSGVPSRFSGGGSGTEFTFTISSLQPEDYATYFCQQGNRIPLSFGGGTRVEIK
B6: EBOV-508 (antibody, V domains shown)
VH: QVQLVQSGAEVKKPGASVKVSCKASGYTFINYYMHWVRQAPGQGLEWMGTINPSTGRPNYAQKFQGRVTLTRDTSTTTVDMELSSLTSEDTAVYYCVSFQFYFDYWGQGTLVTVSS
VL: DIQMTQSPSAMSPSVGDRVTITCRASQGINNYLAWFQQKPGKVPKRLIYAASNLQSGVPSRFSGSGSGTEFTLTISSLQPEDFATYYCLQHNSYPWTFGQGTKVEIN
B7: EBOV-446 (antibody, V domains shown)
VH: QVQLVQSGAEVKKPGASVKVSCKASGYTFTDYYIYWVRQAPGQGLEWMGWLNPNSGGTDYAQKFQGRVTMTRDTSIRTAYMDLSRLRSDDTAVYYCARGRRHGAYVDWGQGTLVTVSS
VL: DIQLTQSPSFLSASVGDRVTITCRASQGISTYLAWYQQKPGKAPNLLIYDTSTLQSGVPSRFSGSASGTEFTLTISSLQPEDFATYYCQQLNFYLGGLTFGQGTRLEIK
B8: EBOV-451 (antibody, V domains shown)
VH: EVQLVESGGSVVRPGGSLRLSCAASGFKFDEYGMSWVRQAPGKGLEWVSGITWNGGVRTYADSVKGRFTISRDNAKNSVYLQMKSLRGEDTALYYCVSWGERYDAYFDYWGQGTLVTVSS
VL: EIVLTQSPGSLSLSPGERATLSCRASQSVNSRYFAWYQQRPGQAPRLLIYATSTRATGIPDRFSGSGSGTDFTLTISRLEPEDFAVYSCQQYGSSPYTFGQGTKLEIK
B9: EBOV-520 (antibody, V domains shown)
VH: QVQLQESGPGLGKPSETLSLSCTVSGASIRGYFWNWIRQPPGKGLEWIGYIHSTGSTNYNPSLKSRVTISVDTSKNQVSLNVNSVTAADTAVYFCARGAWNVATVYYYYGMDVWGQGTLVTVSS
VL: B8 VL with S10T, N30S, R32S, R40K, Y50S, A51G, T57P, S88F, S94N, P96L
B10: EBOV-507 (antibody, V domains shown)
VH: QVQLVQSGAEVKKPGASVKVSCKASGYTFNNYLINWVRQAPGQGLEWMGWINPHSGGTEYAQQFQGRLTVTRDTSIRTAYMELRGLTFDDSAMYYCWIWFRSETFDFWGQGTLVTVSS
VL: DIQMTQSPSAMSASVGDRVTITCRASQDISNYLAWFQQKPGQGPKRLIFEASILHSGVPSRFSGSGSGTEFTLTISSLQPEDFATYYCLQHNTYLTFGQGTKVEIK
B11: EBOV-510 (antibody, V domains shown)
VH: QVQLQESGPGLVKPSQTLSLTCTVSGGSITSGDYYLTWVRQPPGKGLEWIGHIYYSGSTSYNPSLKSRLLMSVDTSKNQFSLRLSSVTAADTAVYYCARESDGDPSRLYFYFAMDVWGQGTLVTVSS
VL: QSALTQPASVSGSPGQSITISCTGTSSDVGGSYFVSWYQHHPGKAPKLMISEVSNRPSGVSNRFSGSKSGNTASLTISGLRTEDEADYYCSSYTSNTTLVFGGETKVTVL
B12: EBOV-518 (antibody, V domains shown)
VH: QVTLKESGPTLVKPTQTLTLTCTFSGFSMNSSGMSVTWIRQPPGKALECLALIYWDDDKWYGPSLETRVTITKDASKNQVVLTMTNMDPVDTATYYCAHSGGLVAGAFDYWGQGTLVTVSS
VL: EIVMTQSPDSLTVSLGERATINCRSSQSVLYRVNSKNYLAWYQQKAGQTPKLIINWASTRESGVPDRFSGSGSGTDFTLTISSLQAEDVAVYYCQQYYNSPRTFGQGTKVEIK
B13: EBOV-442 (antibody, V domains shown)
VH: EVQLVESGGGLVKPGGSLRLSCTGSGGTGFTFKYAGMSWVRQAPGKGPEWIGRIKSRIDGGTTDYAAPVKDRFIVSRDDSRNTLYLQMNSLKTEDTAVYYCATGSGKGPSASFGESYYYYDFINVWGKGTTVTVSS
VL: ESVLTQSPGTLSLSPGERATLSCRASQSISRKYLAWYQQKPGQAPRLLIYGSSSRATGIPDRFSGSGSGTDFTLTISRLEPEDFAVYYCHQYESSPWTFGQGTKVEIK

Changes are numbered by the printed parent chain. Where only a bound is given, the exact number is not on record here.

In one assay the target is MARV GP [change] (Lake Victoria marburgvirus) (UniProt Q1PD50).
Assay: not given
Usually EC50 stands for the concentration at which the effect is half-maximal. Take B1: the EC50 is greater than 10 µg/mL.

B2 had an EC50 greater than 10 µg/mL.

B3 gave an EC50 greater than 10 µg/mL.

The molecule B4 showed an EC50 greater than 10 µg/mL.

The molecule B5 returned an EC50 greater than 10 µg/mL.

In turn, B6 gave an EC50 greater than 10 µg/mL.

In turn, B7 gave an EC50 greater than 10 µg/mL.

Molecule B8 showed an EC50 greater than 10 µg/mL.

The molecule B9 returned an EC50 greater than 10 µg/mL.

B10 yielded a 50% effective concentration (EC50) greater than 10 µg/mL.

For the molecule B11, the EC50 was greater than 10 µg/mL.

In turn, B12 showed an EC50 of 0.78 µg/mL.

B13 displayed an EC50 greater than 10 µg/mL.

The next assay has as its target SUDV GP [change] (Sudan ebolavirus) (UniProt Q7T9D9).
Assay: not given
In the case of B1, the EC50 is 1.11 µg/mL.

Consider B2, for which the EC50 was 1.69 µg/mL.

Consider B3, for which the EC50 came to 0.387 µg/mL.

Turning to B4, the 50% effective concentration (EC50) came out at 0.015 µg/mL.

Consider B5, for which the EC50 was found to be 0.701 µg/mL.

Molecule B6 yielded an EC50 of 0.003 µg/mL.

In turn, B7 showed an EC50 of 0.722 µg/mL.

As to B8, the half-maximal effective concentration (EC50) turned out to be 0.003 µg/mL.

B9: the EC50 stood at 0.136 µg/mL.

For B10, the EC50 stood at 0.002 µg/mL.

B11 gave an EC50 of 3.09 µg/mL.

As for B12, the EC50 was determined as 0.352 µg/mL.

For the molecule B13, the EC50 came out at 0.006 µg/mL.

Another assay addresses BDBV GP [change] (Bundibugyo ebolavirus (BDBV), strain 200706291 Uganda). As to the kind of experiment: ELISA, coated recombinant GP ΔTM.
Take B1: the EC50 is 0.415 µg/mL.

On to B2, for which the EC50 amounted to 0.865 µg/mL.

B3: the half-maximal effective concentration (EC50) was determined as 0.289 µg/mL.

For B4, the EC50 was 0.01 µg/mL.

On to B5, for which the EC50 was found to be 0.146 µg/mL.

As for B6, the EC50 worked out at 0.005 µg/mL.

For the molecule B7, the EC50 came out at 0.002 µg/mL.

With B8, the half-maximal effective concentration (EC50) amounted to 0.007 µg/mL.

As to B9, the EC50 came to 0.072 µg/mL.

For the molecule B10, the EC50 worked out at 0.004 µg/mL.

As to B11, the EC50 is 0.261 µg/mL.

Take B12: the EC50 was found to be 2.63 µg/mL.

B13: the EC50 came to 0.003 µg/mL.

The target of the next assay is EBOV GP [change] (Zaire ebolavirus (EBOV), strain Makona). Put plainly: ELISA, coated recombinant GP ΔTM.
Regarding B1, the concentration for a half-maximal effect (EC50) is 0.304 µg/mL.

Consider B2, for which the EC50 worked out at 0.042 µg/mL.

As to B3, the EC50 worked out at 0.094 µg/mL.

With B4, the EC50 worked out at 0.007 µg/mL.

With B5, the EC50 worked out at 0.123 µg/mL.

Regarding B6, the EC50 came to 0.002 µg/mL.

Consider B7, for which the EC50 was found to be 0.009 µg/mL.

With B8, the EC50 was 0.001 µg/mL.

B9: the EC50 worked out at 0.012 µg/mL.

For the molecule B10, the EC50 was found to be 0.001 µg/mL.

Consider B11, for which the EC50 was determined as 0.143 µg/mL.

For the molecule B12, the EC50 worked out at 0.283 µg/mL.

As for B13, the concentration for a half-maximal effect (EC50) came out at 0.001 µg/mL.
